In one experiment the target is calcineurin. The experiment can be described thus: cell-based or functional assay.
Experiment [1] concerns the target human cyclophilin A (human) (UniProt P62937). The experiment can be described thus: cell-based or functional assay.

human cyclophilin A (human), sequence (P62937 whole entry): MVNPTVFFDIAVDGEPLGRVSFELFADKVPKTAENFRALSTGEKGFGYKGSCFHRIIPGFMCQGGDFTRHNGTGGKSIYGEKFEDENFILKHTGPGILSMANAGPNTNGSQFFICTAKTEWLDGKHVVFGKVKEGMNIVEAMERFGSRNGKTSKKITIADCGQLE

Take CypA/CsA complex: the In vitro inhibition CnA IC50 with calcineurin stood at 50 nM.

In experiment [1], cyclosporin A (peptide) gave an In vitro inhibition human CypA IC50 [nM] (protease-coupled PPIase assay) of 9.1 nM.

These data come from patent US20160082074A1.
